Experimental data published in paper PMC5496246, “Site-specific chemical conjugation of human Fas ligand extracellular domain using trans-cyclooctene – methyltetrazine reactions” (BMC Biotechnology, 2017).

Experiments:
Assay in all cases: co-IP; receptor-mediated co-immunoprecipitation: sample (5.5 ug) with hFasRECD-Fc (8.8 ug) and Protein G conjugated magnetic beads (1.0 mg) in 1.0 ml 50 mM Tris-HCl, 150 mM NaCl (pH 7.5), 1% Nonidet P40, 0.5% sodium deoxycholate; precipitate read by SDS-PAGE with silver stain
Details in all cases: both partners purified
[1] = target: T1, sulfo-Cy3-MTZ conjugated hFasLECD-TCO (human, UniProt P48023 139-281, N184Q | N250Q, cysteine in the N-terminal tag sequence modified with trans-cyclooctene-PEG3-maleimide and conjugated with sulfo-Cy3-methyltetrazine; estimated 1.5 fluorochromes per hFasLECD trimer)
T1 construct: holds the reactive cysteine; human Fas ligand extracellular domain, residues 139-281, with N184Q and N250Q; Derived from NFK3G1CG4-hFasLECD; Not every subunit of the trimer carries the fluorochrome; also called Sulfo-Cy3-MT-hFasLECD; sulfo-Cy3 conjugated hFasLECD; source: P. pastoris secretory expression, purified (cation exchange); modified with TCO-PEG3-MAL, reacted with sulfo-Cy3-MTZ, purified …
T1 sequence: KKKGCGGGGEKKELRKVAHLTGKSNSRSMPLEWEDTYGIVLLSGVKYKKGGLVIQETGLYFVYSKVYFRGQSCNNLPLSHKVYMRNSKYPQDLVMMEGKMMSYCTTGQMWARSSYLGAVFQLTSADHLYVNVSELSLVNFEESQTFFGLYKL

[2] = target: T2, Avidin-hFasLECD conjugate (human | chicken, UniProt P48023 139-281; P02701 25-152, N184Q | N250Q, cysteine in the N-terminal tag sequence modified with trans-cyclooctene-PEG3-maleimide, joined through the TCO-MTZ reaction to an MTZ-PEG4 group on avidin | lysine residues modified with …)
T2 construct: holds the reactive cysteine; human Fas ligand extracellular domain, residues 139-281, with N184Q and N250Q; avidin from chicken egg white, native homotetramer; Covalent chemical conjugate, thought to be one avidin tetramer to one hFasLECD trimer; on SDS-PAGE mainly one avidin subunit joined to one hFasLECD subunit, less of one avidin subunit with two hFasLECD subunits; not shown: FLAG, …
T2 sequence (P02701 25-152, stated change not applied, one chain of several): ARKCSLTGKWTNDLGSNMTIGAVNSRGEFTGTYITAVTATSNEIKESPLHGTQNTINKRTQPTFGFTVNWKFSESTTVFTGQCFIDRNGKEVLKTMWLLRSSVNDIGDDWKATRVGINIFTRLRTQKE

[3] = target: T3, TCO-derivative of NFK3G1CG4-hFasLECD (human, UniProt P48023 139-281, N184Q | N250Q, cysteine in the N-terminal tag sequence modified with trans-cyclooctene-PEG3-maleimide)
T3 construct: holds the reactive cysteine; human Fas ligand extracellular domain, residues 139-281, with N184Q and N250Q; also called hFasLECD-TCO; source: P. pastoris secretory expression, purified (cation exchange); modified with TCO-PEG3-MAL, size-exclusion chromatography; not shown: FLAG, N-terminal, kept
T3 sequence: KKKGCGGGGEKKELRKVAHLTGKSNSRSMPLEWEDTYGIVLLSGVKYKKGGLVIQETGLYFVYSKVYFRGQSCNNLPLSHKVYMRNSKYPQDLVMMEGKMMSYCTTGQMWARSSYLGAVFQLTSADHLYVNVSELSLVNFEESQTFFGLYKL

[4] = target: T4, sulfo-Cy3-TCO conjugated hFasLECD-MTZ (human, UniProt P48023 139-281, N184Q | N250Q, cysteine in the N-terminal tag sequence modified with methyltetrazine-PEG4-maleimide and conjugated with sulfo-Cy3-trans-cyclooctene; estimated 1.6 fluorochromes per hFasLECD trimer)
T4 construct: holds the reactive cysteine; human Fas ligand extracellular domain, residues 139-281, with N184Q and N250Q; Derived from NFK3G1CG4-hFasLECD; Not every subunit of the trimer carries the fluorochrome; also called Sulfo-Cy3-TM-hFasLECD; sulfo-Cy3 conjugated hFasLECD; source: P. pastoris secretory expression, purified (cation exchange); modified with MTZ-PEG4-MAL, reacted with sulfo-Cy3-TCO, purified …
T4 sequence: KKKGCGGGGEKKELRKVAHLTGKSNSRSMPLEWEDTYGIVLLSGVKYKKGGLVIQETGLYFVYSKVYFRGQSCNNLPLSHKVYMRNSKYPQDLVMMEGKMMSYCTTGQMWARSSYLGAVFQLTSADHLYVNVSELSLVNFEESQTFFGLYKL

Measured: binding result

B1: human Fas receptor extracellular domain-human IgG1 Fc domain fusion protein (Fc fusion, UniProt P25445 26-173, looked up)
chain: QVTDINSKGLELRKTVTTVETQNLEGLHHDGQFCHKPCPPGERKARDCTVNGDEPDCVPCQEGKEYTDKAHFSSKCRRCRLCDEGHGLEVEINCTRTQNTKCRCKPNFFCNSTVCEHCDPCTKCEHGIIKECTLTSNTKCKEEGSRSN
notes: human Fas receptor (hFasR) extracellular domain; also called hFasRECD-Fc; source: baculovirus - Bombyx mori expression system, purified
binds: all assays above
